Numbering of substitutions follows the chain as printed.
What was measured:
[1] = molecular target: T1, rat IL-11 (rat, UniProt Q99MF5 22-199); experiment: SPR 37 C, antibody captured, IL-11 as analyte
T1 construct: Invigate, e.g. lot #C301019-19; also called rIL11
T1 sequence: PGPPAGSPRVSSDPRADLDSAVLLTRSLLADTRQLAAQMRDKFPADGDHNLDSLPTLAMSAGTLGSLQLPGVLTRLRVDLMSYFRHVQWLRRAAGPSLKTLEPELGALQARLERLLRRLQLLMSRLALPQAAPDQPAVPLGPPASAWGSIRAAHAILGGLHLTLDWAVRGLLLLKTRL

[2] = molecular target: T2, cynomolgus IL-11 (cynomolgus, UniProt P20808 22-199); experiment: SPR 37 C, antibody captured, IL-11 as analyte
T2 construct: Invigate, lot #C290621-19; also called cIL11; cynoL-11
T2 sequence: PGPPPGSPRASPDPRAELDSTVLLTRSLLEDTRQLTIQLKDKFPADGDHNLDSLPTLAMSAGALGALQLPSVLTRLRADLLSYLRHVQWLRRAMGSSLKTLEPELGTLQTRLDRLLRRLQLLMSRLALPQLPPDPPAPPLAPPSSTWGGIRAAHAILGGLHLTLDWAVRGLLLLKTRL

[3] = molecular target: T3, murine IL-11 (mouse, UniProt P47873 22-199); experiment: SPR 37 C, antibody captured, IL-11 as analyte
T3 construct: Invigate, e.g. lot #C210819-09; biotinylated where coated in the ELISA; also called mIL-11; mIL11
T3 sequence: T1 sequence with N50S, F84L, A94G, A137V, V138I

[4] = molecular target: T4, human IL-11 (human, UniProt P20809 22-199); experiment: SPR 37 C, antibody captured, IL-11 as analyte
T4 construct: Invigate, e.g. lot #C121021-19; biotinylated where coated in the ELISA; also called hIL-11; hIL11
T4 sequence: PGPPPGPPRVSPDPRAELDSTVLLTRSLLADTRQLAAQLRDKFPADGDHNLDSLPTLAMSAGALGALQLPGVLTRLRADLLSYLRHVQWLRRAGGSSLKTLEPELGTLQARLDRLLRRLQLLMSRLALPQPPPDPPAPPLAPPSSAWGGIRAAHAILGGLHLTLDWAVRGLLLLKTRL

[5] = molecular target: T1, rat IL-11; experiment: cell-based or functional assay
[6] = molecular target: T2, cynomolgus IL-11; experiment: cell-based or functional assay
[7] = molecular target: T3, murine IL-11; experiment: cell-based or functional assay
[8] = molecular target: T4, human IL-11; experiment: cell-based or functional assay
[9] = molecular target: T3, murine IL-11; experiment: Di-complex ELISA, competitor murine IL11RA-Fc on coated IL-11
[10] = molecular target: T4, human IL-11; experiment: as above

Kd [1]: 3.2 nM | binding result [2]: no binding (tested: IL-11 up to 200 nM) | Kd [3]: 1.8 nM | Kd [4]: 1.4 nM | RGA Efficacy (%) [5]: 81.3% | RGA IC50 [5]: 8.8 nM | RGA Efficacy (%) [6]: 52.4% | RGA Efficacy (%) [7]: 90.9% | RGA IC50 [7]: 8.1 nM | RGA Efficacy (%) [8]: 76.7% | RGA IC50 [8]: 3.7 nM | Efficacy (%) [9]: 98.4% | IC50 [9]: 3.3 nM | Efficacy (%) [10]: 97.2% | IC50 [10]: 2.9 nM
B1: TPP-23552 (antibody, human IgG1, kappa)
heavy: not shown
light: DIVLTQSPASLALSPGERATLSCRASKSVSTSGYSYIHWYQQKPGQPPRLLIYLASNLDSGVPARFSGSGSGTDFTLNIHPLEEEDFATYYCQHSRDLPPTFGQGTKLEIKRTVAAPSVFIFPPSDEQLKSGTASVVCLLNNFYPREAKVQWKVDNALQSGNSQESVTEQDSKDSTYSLSSTLTLSKADYEKHKVYACEVTHQGLSSPVTKSFNRGEC
notes: hIgG1, Kappa; also called BSN 3C6 (WO2019238882)
